{
  "source": "paper PMC8244254",
  "about": "(Current Research in Structural Biology, 2020)",
  "proteins": {"B1": {"name": "Marasmius oreades agglutinin (MOA) variant C215A (enzyme)", "chain": "MSLRRGIYHIENAGVPSAIDLKDGSSSDGTPIVGWQFTPDTINWHQLWLAEPIPNVADTFTLCNLFSGTYMDLYNGSSEAGTAVNGWQGTAFTTNPHQLWTIKKSSDGTSYKIQNYGSKTFVDLVNGDSSDGAKIAGWTGTWDEGNPHQKWYFNRMSVSSAEAQAAIARNPHIHGTYRGYILDGEYLVLPNATFTQIWKDSGLPGSKWREQIYDADDFAIAMKAAVGKWGADSWKANGFAIFCGVMLGVNKAGDAAHAYNFTLTKDHADIVFFEPQNGGYLNDIGYDSYMAFY", "notes": "Marasmius oreades agglutinin (MOA), from the cDNA for wild-type MOA in vector MOApT7-LO; the final model holds residues 2-293, no density for the first methionine; One protomer in the asymmetric unit; the second subunit of the dimer comes from crystal symmetry; Construct described in Cordara et al. (2011); also called MOA C215A; MOA-C215A"}, "B2": {"name": "Marasmius oreades agglutinin (MOA) variant C215A/H257A (enzyme)", "chain": "MSLRRGIYHIENAGVPSAIDLKDGSSSDGTPIVGWQFTPDTINWHQLWLAEPIPNVADTFTLCNLFSGTYMDLYNGSSEAGTAVNGWQGTAFTTNPHQLWTIKKSSDGTSYKIQNYGSKTFVDLVNGDSSDGAKIAGWTGTWDEGNPHQKWYFNRMSVSSAEAQAAIARNPHIHGTYRGYILDGEYLVLPNATFTQIWKDSGLPGSKWREQIYDADDFAIAMKAAVGKWGADSWKANGFAIFCGVMLGVNKAGDAAAAYNFTLTKDHADIVFFEPQNGGYLNDIGYDSYMAFY", "notes": "Marasmius oreades agglutinin (MOA), from the cDNA for wild-type MOA in vector MOApT7-LO; the final model holds residues 2-293, no density for the first methionine; also called MOA C215A/H257A; MOA-C215A/H257A"}},
  "target": "the molecule itself",
  "assay": "crystal structure; co-crystallisation by hanging-drop vapour diffusion at 20 °C; MOA variant 5 mg/ml pre-mixed with the trisaccharide Galα1,3(Fucα1,2)Gal (1:20) and the heptapeptide at 1:10 MOA:peptide molar ratio; crystals grew over 2-4 weeks",
  "data": [
    {"protein": "B1", "values": [
      {"measurement": "binding result", "result": "binds"}
    ]},
    {"protein": "B2", "values": [
      {"measurement": "binding result", "result": "binds"}
    ]}
  ]
}
